The nanobody polyreactivity screen of Harvey et al. (2022)

Assay: yeast display, Sf9 membrane polyspecificity reagent, FACS + sequencing; frameworks hold sequencing errors
How it was run: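 Polyreactivity labels are assigned by the sorting gate from which each nanobody was recovered. The gates were low and high (top ~1%), set on anti-HA fluorescence for expression and streptavidin fluorescence for reagent binding. Before sorting, galactose-induced (36–48 hours) yeast display cells were stained for 1 hour at 4 °C with 10% biotinylated, detergent-solubilized Sf9 membrane reagent.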

Row | Sequence | polyreactivity (PSR sort gate)
1 | QVQLVESVGGLDQAGGSLRLSCAASGSTFKRYVMGWYRQAPGKERELVAAITWSGTRTYYADSVKGRFTLSRDNAKNTVYLQMNSLKPEDTAVYYCAARLYGGYDWGQGTQVTVSS | high polyreactivity
2 | QVHHVESGGGLVQAGGSLRLSCAASGRTFRYKAMGWYRQAPGKETELVARISRTGGRTYYADSVKGRFTISRDNAKTTVYLQMNSLKPEDTAVYYCNARKRYYSTRYNYWGQGTQVTVSS | high polyreactivity
3 | QVQLVESGGGLVQAGGSLRLSCAASGRSNAMGWYRQAPGKERELVAAISTNGGSTYYADSVKGRFTISRDNAKNTVYLQMNSLKPEDTAVYYCAKRLGRDYTFGYWGQGTQVTVSS | high polyreactivity
4 | QVQLVESGGGLVQAGGSLRLSCAASGFIFNYNTMGWYRQAPGKERELVAAISFSGGSTYYADSVKGRFTISRDNAKNTVYLQMNSLKPEDTAVYYCATRNGRQYSVSYRYYYWGQGTQVTVSS | low polyreactivity
5 | QVQLVESGGGLVQAGGSLRLSCAASGSTFDANAMGWYRQEPGKERELVATISDGGSTNYADSVKGRFTISRDNAKNTVYLQMNSLKPEDTAVYYCAADFSPWGGWYMSLDYWGQGTQVTVSS | low polyreactivity
6 | QVQLVESGGGLVQAGGSLRLSCAAYGSNFVFNAMGWYRQAPGKERELVAAISNGDGTNYADSVKGRFTISRDNAKNTVYFQINSLKPEDTAVYYCAAVWTTQIVIEYDYWGQGSQVTVSS | low polyreactivity
7 | QFQLVESGGGLVQAGGSLRLSCAPSGFIISSNAMGGYRQAPGKERELVAAISARGGSTYYADSVKRRFTISRDNAKNTVYLQMNSLKPEDTAVYYCNTDYKTTGDYWGEGTQVTVSS | high polyreactivity
8 | QVQIVESGGGLVQAGGSLRVSCAPSGRTFLPYGMGWYRQAPGKEWELVASITSGGSTNYADSVKGRFTISRDNAQNTVYLQMNSLKPEDTAVYYCNKQTIPEWPWVKYSNGYDHWGHGTQVTVSS | low polyreactivity
9 | QVQLVESGGGLVQAGGSLRLSCAASGSTFTTYAMGWYRQAPGKEREFVASIRWRGGHTYYADSVKGRFTISRDNAKNTVYLQMNSLKPEDTAVYFCARRVDYISSKYGYWGQGTQVTVSS | high polyreactivity
10 | QVQLVESGGCLVQAGGSLRLSCAASGIIFTLYAMGWYRQAPGKEREIVAAISGSGGSTYYADSVKGRFTISRDNAKNTVYLQMNSLKPEDTAVYYCAARGVRGTGLDSRMYYWGQGTQVTVSS | high polyreactivity
11 | QVQLVESGGGLVQAGGSLRLTCAASGSIFISYHMGWYRQAPGKERELVAAIRSRVGSTYYSDSVKGRFTISRDNAKNPVYFQMNCLKPEDPAVYYCAAERSFSRFTTYDYWGQGTQVTVSS | low polyreactivity
12 | QVQLVESGGGLVQAGGSLRLSCAASGSTFYAYAMGWYRQAPGTERELVAAITTIGGRTYYADSVKGRFTISRDNAKNTVYLQMNSLKPEDTAVYYCAADIRSNRLYDGGYWGQGTQVTVSS | low polyreactivity
13 | QVQLVESGGGLVQAGGSLRLSCAASGLIFRVYAMGWYRQAPGKERELVAAITWSDGSTYYADSVKGRFTISRDNAKNTVYLQMNSLKPEDTAVYYCATAYFRVYHSRYYYWGQGTQVTVSS | high polyreactivity
14 | QVQLVESGGGLVQAGGSLRLSCAASGSTFGYYAMGWYRQAPGKERELVAAITSGASTNYADSVKGRFTISRDNAKNTVYLQMNSLKPEDTAVYYCAAANLQYGKDVQGDYWGQGTQVTVSS | low polyreactivity
15 | QGQLVESGGGLVQAGGSLRLSCAASGSMFYRYAMGWYRQAPGKERELVAVITSAGGTHYADSVKGRFTISRDNAKNTVYLQMTSLKPEDTAVDYCARRGYYYDYWGEGTQVTVSS | high polyreactivity
16 | QVQLGESGGGLVQAGGSLRLTCAASGSIFRYYAMGWYRQAPGKERELVAAIRWSGGRTYYADSVKGRFTISRDNAKNTVYLQMNSLKPEDTAVYDCAADPPHYKPNVRYYYWGQGTQVTVSS | high polyreactivity

Row | Sequence | polyreactivity (PSR sort gate)
17 | QVQLVESGGGLVQAGGSLRLSCAASGIIFGGNVMGWYRQAPGKERELVAAISGTGDNTYYADSVKGRFTISRDNAKNTVYLQMNSLKPEDTAVYYCNTVYYGWPRRYGYWGQGTQVTVSS | high polyreactivity
18 | QVQLVESGGGLVQAGGSLRLSCAASGRIFSFNAMGWYRQAPGKERELVATIRTDGTTNYADSVKGRFTISRDNAKNTVYLQMNSLKPEDSAVYYCATDSGWSTYDYWGQGTQVTVSS | high polyreactivity
19 | QVQLVESGGGLVQAGGSLRLSCAASGSNFAINAMGWYRQAPGKERELVAAITRTASTYADSVKGRFTISRDNAKNTVYLQMNSLKPEDTAVYYCNADFAYRYYYWGQGTQVTVSS | low polyreactivity
20 | QVQLVESGGGLVQAGGSLRLSCAASGRTFIWYAMGWYRQAPGKERELVAAISYSGASTYYADSVKGRFTNSRDNAKNTVYLQMNSLKPEDTAVYYCYPLGTYSYDYWGQGTQVTVSS | high polyreactivity
21 | QVQLVESGGGLVQAGGSLRLSCAASGRTIRAYTMGWSRQAPGKERELVAAISTPGGSTYYADSVKGRFTISRDNAKNTVYLQMNSLKPEDTAVYYCAADYGGPITGYEYWGQGTQVTVSS | low polyreactivity
22 | QVQLVESGGGLVQAGGSLRLSCAASGIIFNANTMLWYRQAPGKERELVAAITRGGSTNYADSEKGRFTISRDNAKNTVYLQMNSLKPEDTAVYYCAARTGYYCGSGGNRYISPYDYWGQGTQVTVSS | low polyreactivity
23 | QVQLVESGGGLVQAGGSLRLSCAASGRIFYSNAMGWYRQAPGKERELVAAISSSGGSTYYADSVKGRFTISRDNAKNTVDLQMNSLKPEDTAVYYCNAVHARYRSQGDYWGQGTQVTVSS | low polyreactivity
24 | QVQLVESGGGLVQAGGSLRLSCAASGSIFKYYAMGWYRQAPGKEREFVAAITRSGGSTYYADSVKGRFTISRDNAKNTVYLQMNSLKPEDTAVYYCAARSYARPGGSRFDYWGQGTQVTVSS | high polyreactivity
25 | QVQLVESGGGLVQAGGSLRLSCAASGFTFRYYVMGWYRQAPGIERELVAAISWSGGSTYYADSVKGRFTISRDNAKYTVYLQMNSLNPEDTAVYYCNAASLSKSDYWGQGTQVTVSS | high polyreactivity
26 | QVQLVDSGGGIGQAGASLRLSCAASGRNFAVYAIGWYRQAPGKERELVAAITRNGGSTYADSVKGRFTISRDNAKNTVYFQMNSLKPDDTAVYYCNAVAYIYSYAYPPYWGREHLNYWGQGTQLTVSS | low polyreactivity
27 | QVQLVESGGGLVQAGGSLRLSCAASGITFADYVMGWYRPAPGKERELVAAISTDGGSTYYADSVKGRFTISRDNAKNTVYLQMNSLKPEDTAVYYCASEWSYPGYEFDYWGQGTQVTVSS | high polyreactivity
28 | QVQLVESGGGLVQAGGSLRLSCAASGFTFAYDAMGWYRQAPGKERELVAAIRRRGGITYYADSVKGRFTISRDNAKNTVYLQMNSLKPEDTAVYYWNAVRSYPAGYDSWGQGTQVTVSS | low polyreactivity
29 | QVQLVESGGGLVQAGGSLRLSCAASGSIFRFYAMGWYRQAPGKERELVAAISSGGSTYYADSVKGRFTISRDNAKNTVYLQMKSLKPEDTAVYYCAHGFAQYGLDLDPGDYDYWGQGTQVTVSS | low polyreactivity
30 | QVQLVESGGGLVQAGGSLRLTCDASGITYYGYAIGWSRQAPGKEREWVAGINNGGSTTYADSVKGRFTISRDNAKITVYLQMNSVKPEDTAVYYCAADPVYLNKLLYYVGQAYYYWGQGTQVTVSS | high polyreactivity
31 | QVQLVESGGGLVQEGGSLRLSCAAYGFIFGDNALGWYRQAPGKERELVAGSTVSDGSTYYADSVKGRFTISRDNAKNTVYLLMNSLKPEDTAVYYCNAAGRYKPGAPYDYWGQGNQVTVSS | low polyreactivity
32 | QVQLVESGGGLVQAGGSLRLSCAASGFIFLRYGMGWYRQAPGKERELVASIDSTGGSTYADSVKGRFTISRDNAKNTVYLQMNSLKPEDTAVYYCAAAYYIVSQRDYWGQGTQVTVSS | low polyreactivity
